Reference: the RNAGym collection of RNA variant scans (doi:10.1073/pnas.2313332121)

B1: TPR t1 (parent)
chain: GACCAAUCUGCCCUCAGAGCUCGAGAACAUCUUCGGAUGCAGAGGAGGCAGGCUUCGGUGGCGCGAUAGCGCCAACGUCCUCAACCUCCAAUGCAUCCCACCACAUGAUGAUGCCUGAAGAGCCUUGGUUUUUUG

Variants of: B1
Assay: polymerase ribozyme fitness, log enrichment relative to wild type (log ratio); higher = more active; in vitro selection for triplet polymerase activity
Outline: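 The heterodimeric triplet polymerase ribozyme's subunits were each mutagenized into PCR-built libraries and transcribed. Every library was selected once, in triplicate, by annealing with a biotinylated primer, the partner subunit and triplets, incubating frozen at −7 °C, gel-excising extended constructs, capturing on streptavidin beads and running RT-PCR. Input and output libraries were Illumina-sequenced, with genotypes kept only at ≥10 input reads and ≥1 read per output. Fitness, from inverse-variance-weighted replicate averages, is the base-2 logarithm of genotype enrichment over wild-type enrichment.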

Variant | polymerase ribozyme fitness (log ratio)
A43U A121U | 1.26
A43C U131C | -1.94
G44A G60U | -0.542
G44C C89U | -1.15
G42U G93U A118G | -2.35
G42A C56G G122A | -3.21
A43U G48A C56U | -1.58
G42U A43G C123A | -1.31
G42A U96C | -2.41
G42C C62U U131C | -1.44
G42A A46U C76U U96G | -4.78
G42U G58C G63A C82G U87C | -5.43
G44C C80U C88A | -2.94
A41U G48C A83C C88G | -4.38
A43C G48A C56U G63A G113U U125C U131A | -6.28
G44A C56U | -0.878
G44A C56A | -1.33
A41U C53A C114G | -1.85
G44A C88A | -1.02
G44A A46U G93U C104U | -2.25
G44A A68G U112A | -3.21
A41U C80U C123A | -1.59
G42C G120A U132A | -0.616
A43G G48A G63A U78C U112C G127U | -3.79

Variant | polymerase ribozyme fitness (log ratio)
A43C C72U A100U U130G | -4.41
G42C U55A G63U C101U | -3.41
G42C G44U G117U A118U | -5.32
A43C G77U C85G | -4.12
G44A A90G C104U | -0.158
G42A G69A G93C | -6.98
G42U G52U U54A A111C G122A | -5.42
A41U G113C C115A C124A | -5.25
G42A G57U G122U C123U | -2.35
G44A G48C A74U | -2.22
A43C A46G | -1.62
A43C G48U C62A A66U C123A | -6.8
G44A C56U C72U | -2.35
A43C G77A G127C | -3.5
A41G U55G A75G U87A A108G | -4.14
A41U G45U U78C | -2.76
G44C G60U U116C C124A | -0.335
G44A C70U A103U G117U | -5.43
G42U C72A A74G U96C | -3.45
G42U G61U C88G C101A G120C | -3.56
A41U C101G | -3.73
A41U U92A | -0.903
A43C G63A C114G C123U | -6.77
A41U G57A | -1.97

Variant | polymerase ribozyme fitness (log ratio)
A43G U130C | -1.1
A43G G47U | -3.37
A43U C56G C79G | -4.99
G44A G71A C73A | -2.85
G42A G48A G69A | -6.28
G42C G47U | -4.02
A43C U125A | -2
G42U C72G G128C | -4.55
A43U U92G | -1.81
A43C G47U | -3.64
G44A G48U C53A G60U | -1.14
A41U G47A G110U | -5.48
A43G C76U U109G | -6.79
G42A U87G | -1.65
G44C G60U | -0.287
A43U G63C A100U C124G | -2.24
G44C C70A | -2.37
A43C G69U G110A | -1.54
G42A U78A | -2.26
G42U G122A | -1.66
G42C U96A C123U | -0.809
A43C G60C U131G | -3.6
G42A C86A U106G | -5.73
G42A G44C C56G G135U | -3.31

Variant | polymerase ribozyme fitness (log ratio)
G42A C56G C64U G122A | -3.76
G44A G77C U78A G93A | -1.9
A43G C102A | -4.25
A43C G44U | -2.14
G44C A46U C86U | -2.43
A43C G48C G71A | -4.5
A43U U106A A118U | -1.2
G42A C88A C98G G110C | -6.29
G42U G44U C49A G69U U87G A119U G135A | -1.59
G42U C73U | -1.51
G42U C73A | -1.55
A43U C56G | -1.4
A41G G61U A84G U96G C97U | -6.44
A43G G93C G120A | -2.35
A41U G61A G127C | -2.63
G44C G61A C80A | -4.34
G44A C49U U78G C101A | -3.78
G42C G48A G63U U78C A83C G113U | -7.11
A43U G77C U78A C79U G120U U131C | -1.51
A41U C104U | -0.832
G42A U54C U132A | -1.62
G42C G60C G120U | -2.03
G42U U78C C123G | 0.17
G42A C85A C94G G113A | -4.07

Variant | polymerase ribozyme fitness (log ratio)
A43U G71U | -1.89
G42C G44A A50C C82U C85U | -3.31
G42C A66U A83U | -3.36
A41U A111G | -1.26
A41U C80U | -1.77
G44A A50U G60U U132C | -2.38
G44A C76A C123G | 0.122
G42C G71U G77C A100U | -3.33
A41U G45C | -2.41
G44A G60A C89G C101A C104U | -2.79
G44A G110A | -2.08
A41G G63U G117C | -6.01
G42A G45C G61A A105C C115U | -6.55
A43U G69C | -2.32
G42U U112A | -0.57
G44C G47U C53A C76G C102G G110C | -7.23
G42A C115A U130G | -2.13
A43C C88U | -2.23
A43G U112C G122U | -0.183
A41U C49U C88A A121U | -0.675
A41U G42C C114A C124A | -3.31
G44A C72A U78C A119G | 0.491
G42U A43C G47C C62A U130C | -4.8
A43U C53G | -1.38

Variant | polymerase ribozyme fitness (log ratio)
A41U C53U C72A C86A C114U U129G | -5.65
A43G G57U C73U A90U C102U | -4.93
A43U G58U G113A | -2.63
G44C G47U | -1.8
G42U C53G G77U U126C | -2.18
G42A G71U U130G | -4.16
G44A A100C G110A | -4.23
G44A C70A C89A | -4.72
A41G U54C G61C C104A | -6.52
A43U C97A | -7.59
A43U U59G U96A A105U A121C | -4.79
A41U G52A G117U | -4.85
A43C C49A C94A C115A | -4.43
G42A G113A | -2.62
A43U A46U C97U | -3.34
A41U G110C | -4.99
G42U U78C | -1.45
A41U G45A C88A C115A U131A | -3.64
G42U U78A C85U | -2.63
A43C U55A C62U G93U U96G | -4.79
G42A C56A | -1.64
G42A C56G | -1.49
A41U C76A | -1.89
A43C U87C C89A A91U U92G G93C U125G | -4.91

Variant | polymerase ribozyme fitness (log ratio)
G44A C89A | -1.04
A43U G71A C115U | -3.62
A43U U87G | -1.43
A41U C53A G58A | -1.32
A43U G44U | -1.67
G42U C94U U126A U129G | -5.24
A41U U130A | -2.03
G44A G60A A74U | -0.926
A41U G69U G120C | 0.831
A43U C53A C62A G93A U112C G128U | -4.57
G44A U96G U116A | -5.13
G42U U87C G128U U133A | -3.75
G42U A43G G45U U55G C72A | -0.969
A43G C73G A75C U112A | -3.33
A43G C72G U132A G135C | -2.2
G44C C49U C88A C124U | -1.53
A43C C53A C56A C62U | -3.14
A41G U55A U130G | -0.934
G42U C49G U112A | -0.357
G44C G61A A66G A75G | -2.01
A41U G42U G93C | -3.1
A43C C56A A66U U112A | -4.32
A43U U96C C101A G122A G127A | -5.79
